Reference: paper PMC5569669, “Rhenium and Technetium-oxo Complexes with Thioamide Derivatives of Pyridylhydrazine Bifunctional Chelators Conjugated to the Tumour Targeting Peptides Octreotate and Cyclic-RGDfK” (Inorganic Chemistry, 2017)

Format: in vitro ADME, human
Protocol: Human blood samples were centrifuged with a Heraeus Labofuge 6000 centrifuge at 3000g for 10 min (Heraeus, Hanau, Germany). Radioactivity readings for serum stability studies were taken with a Capintec CRC-35R dose calibrator (Capintec, New Jersey, USA) and were measured in MBq. Centrifugation of radioactive compounds was undertaken using an Eppendorf 5415 D centrifuge (Eppendorf, Hamburg, Germany). Partition coefficient data were collected with a PerkinElmer, Wizard 1470 (PerkinElmer, Massachusetts, USA) automatic γ counter, which measured the radioactive decay of each sample in counts per minute (cpm).
For serum stability studies, blood from a healthy person (20 mL) was centrifuged (10 min, 3000 rpm) to separate blood plasma and red blood cells. The plasma was transferred to a separate vial and the red blood cells were discarded. An aliquot of plasma (0.6 mL) was added to labeled compound, [^99mTc(HL^3(Tyr^3-Oct))2]^+ (0.15 mL), the radioactivity was monitored and the mixture was then incubated at 37 °C. […] The radioactivity of the supernatant and pellet was recorded. The supernatant (20 μL) was analyzed by analytical RP-HPLC (Column 7, System C) for UV and radioactivity analysis and the pellet were washed with acetonitrile (3 × 0.1 mL), and radioactivity levels were again recorded (radioactivity levels of the pellet were negligible).

**Q.** With `C[C@@H](O)[C@H](NC(=O)[C@@H]1CSSC[C@H](NC(=O)[C@@H](Cc2ccccc2)NC(=O)c2ccc(NNC(=S)Nc3ccccc3)nc2)C(=O)N[C@@H](Cc2ccc(O)cc2)C(=O)N[C@H](Cc2c[nH]c3ccccc23)C(=O)N[C@@H](CCCCN)C(=O)N[C@@H]([C@@H](C)O)C(=O)N1)C(=O)O` (99mTc complex, metal not drawn) [[^99mTcO(HL^3(Tyr^3-Oct))2]^+] as the compound, how does the “degradation products in human plasma” value read?
**A.** < 5%

**Q.** And the “radioactivity levels of the pellet (precipitated serum proteins)” value?
**A.** negligible
